Changes are numbered by the printed parent chain. Names and notes keep the numbering of the source.
B1: VH SEQ ID NO 626 / VL SEQ ID NO 470 (antibody, IgG4, V domains shown)
VH: QVQLQESGPGLVKPSQTLSLTCTVSGYSISSDSAWSWIRQPPGKGLEWIGYIQYSGSTNYNPSLKSRVTISRDTSKNQFSLKLSSVTAADTAVYYCARSVNYYGNSFAVGPWGQGTLVTVSS
VL: EIVLTQSPATLSLSPGERATLSCRASQGVSDYLHWYQQKPGQAPRLLIKYASQPATGIPARFSGSGSGTDFTLTISSLEPEDFAVYYCQNGHSFPLTFGQGTKLEIK
notes: humanized 11F2; IgG4 S228P/kappa
B2: VH SEQ ID NO 514 / VL SEQ ID NO 486 (antibody, IgG4, V domains shown)
VH: B1 VH with K13E, Q16D, T23A, S30T, G45K, I70M, A89L, P111Y
VL: B1 VL with A84G
notes: as for B1
B3: VH SEQ ID NO 514 / VL SEQ ID NO 358 (antibody, IgG4, V domains shown)
VH: B1 VH with K13E, Q16D, T23A, S30T, G45K, I70M, A89L, P111Y
VL: B1 VL with V29I, A51T
notes: as for B1
B4: VH SEQ ID NO 514 / VL SEQ ID NO 494 (antibody, IgG4, V domains shown)
VH: B1 VH with K13E, Q16D, T23A, S30T, G45K, I70M, A89L, P111Y
VL: B1 VL with F83V
notes: as for B1
B5: VH SEQ ID NO 522 / VL SEQ ID NO 318 (antibody, IgG4, V domains shown)
VH: B1 VH with K13E
VL: B1 VL with V29I, Q42E, A51T
notes: as for B1
B6: VH SEQ ID NO 314 / VL SEQ ID NO 342 (antibody, IgG4, V domains shown)
VH: B1 VH with K13E, Q16D, T23A, I70M, R72V, A89L
VL: B1 VL with V29I, A51T, T69R, Q100A, I106L
notes: as for B1
B7: VH SEQ ID NO 514 / VL SEQ ID NO 390 (antibody, IgG4, V domains shown)
VH: B1 VH with K13E, Q16D, T23A, S30T, G45K, I70M, A89L, P111Y
VL: B1 VL with H34A, Q42E
notes: as for B1
B8: VH SEQ ID NO 514 / VL SEQ ID NO 478 (antibody, IgG4, V domains shown)
VH: B1 VH with K13E, Q16D, T23A, S30T, G45K, I70M, A89L, P111Y
VL: B1 VL with N90Q
notes: as for B1
B9: VH SEQ ID NO 314 / VL SEQ ID NO 454 (antibody, IgG4, V domains shown)
VH: B1 VH with K13E, Q16D, T23A, I70M, R72V, A89L
VL: B1 VL with Q42E
notes: as for B1
B10: VH SEQ ID NO 514 / VL SEQ ID NO 502 (antibody, IgG4, V domains shown)
VH: B1 VH with K13E, Q16D, T23A, S30T, G45K, I70M, A89L, P111Y
VL: B1 VL with A51T
notes: as for B1
B11: VH SEQ ID NO 314 / VL SEQ ID NO 470 (antibody, IgG4, V domains shown)
VH: B1 VH with K13E, Q16D, T23A, I70M, R72V, A89L
VL: B1 VL
notes: as for B1
B12: VH SEQ ID NO 514 / VL SEQ ID NO 318 (antibody, IgG4, V domains shown)
VH: B1 VH with K13E, Q16D, T23A, S30T, G45K, I70M, A89L, P111Y
VL: B1 VL with V29I, Q42E, A51T
notes: as for B1
B13: VH SEQ ID NO 314 / VL SEQ ID NO 382 (antibody, IgG4, V domains shown)
VH: B1 VH with K13E, Q16D, T23A, I70M, R72V, A89L
VL: B1 VL with V29L, Q42E
notes: as for B1
B14: VH SEQ ID NO 314 / VL SEQ ID NO 494 (antibody, IgG4, V domains shown)
VH: B1 VH with K13E, Q16D, T23A, I70M, R72V, A89L
VL: B1 VL with F83V
notes: as for B1
B15: VH SEQ ID NO 314 / VL SEQ ID NO 502 (antibody, IgG4, V domains shown)
VH: B1 VH with K13E, Q16D, T23A, I70M, R72V, A89L
VL: B1 VL with A51T
notes: as for B1
B16: VH SEQ ID NO 314 / VL SEQ ID NO 478 (antibody, IgG4, V domains shown)
VH: B1 VH with K13E, Q16D, T23A, I70M, R72V, A89L
VL: B1 VL with N90Q
notes: as for B1
B17: VH SEQ ID NO 514 / VL SEQ ID NO 470 (antibody, IgG4, V domains shown)
VH: B1 VH with K13E, Q16D, T23A, S30T, G45K, I70M, A89L, P111Y
VL: B1 VL
notes: as for B1
B18: VH SEQ ID NO 514 / VL SEQ ID NO 334 (antibody, IgG4, V domains shown)
VH: B1 VH with K13E, Q16D, T23A, S30T, G45K, I70M, A89L, P111Y
VL: B1 VL with V29I
notes: as for B1
B19: VH SEQ ID NO 314 / VL SEQ ID NO 486 (antibody, IgG4, V domains shown)
VH: B1 VH with K13E, Q16D, T23A, I70M, R72V, A89L
VL: B1 VL with A84G
notes: as for B1
B20: VH SEQ ID NO 514 / VL SEQ ID NO 414 (antibody, IgG4, V domains shown)
VH: B1 VH with K13E, Q16D, T23A, S30T, G45K, I70M, A89L, P111Y
VL: B1 VL with H34A
notes: as for B1
B21: VH SEQ ID NO 314 / VL SEQ ID NO 326 (antibody, IgG4, V domains shown)
VH: B1 VH with K13E, Q16D, T23A, I70M, R72V, A89L
VL: B1 VL with V29I, Q42E, A51T, A84G, Q100A, I106L
notes: as for B1
B22: VH SEQ ID NO 514 / VL SEQ ID NO 430 (antibody, IgG4, V domains shown)
VH: B1 VH with K13E, Q16D, T23A, S30T, G45K, I70M, A89L, P111Y
VL: B1 VL with H34A, A84G
notes: as for B1
B23: VH SEQ ID NO 314 / VL SEQ ID NO 318 (antibody, IgG4, V domains shown)
VH: B1 VH with K13E, Q16D, T23A, I70M, R72V, A89L
VL: B1 VL with V29I, Q42E, A51T
notes: as for B1
B24: VH SEQ ID NO 314 / VL SEQ ID NO 358 (antibody, IgG4, V domains shown)
VH: B1 VH with K13E, Q16D, T23A, I70M, R72V, A89L
VL: B1 VL with V29I, A51T
notes: as for B1
B25: VH SEQ ID NO 514 / VL SEQ ID NO 462 (antibody, IgG4, V domains shown)
VH: B1 VH with K13E, Q16D, T23A, S30T, G45K, I70M, A89L, P111Y
VL: B1 VL with Q100A
notes: as for B1
B26: VH SEQ ID NO 514 / VL SEQ ID NO 366 (antibody, IgG4, V domains shown)
VH: B1 VH with K13E, Q16D, T23A, S30T, G45K, I70M, A89L, P111Y
VL: B1 VL with V29L, H34A, Q42E
notes: as for B1
B27: VH SEQ ID NO 522 / VL SEQ ID NO 326 (antibody, IgG4, V domains shown)
VH: B1 VH with K13E
VL: B1 VL with V29I, Q42E, A51T, A84G, Q100A, I106L
notes: as for B1
B28: VH SEQ ID NO 514 / VL SEQ ID NO 446 (antibody, IgG4, V domains shown)
VH: B1 VH with K13E, Q16D, T23A, S30T, G45K, I70M, A89L, P111Y
VL: B1 VL with H34A, A51T
notes: as for B1
B29: VH SEQ ID NO 514 / VL SEQ ID NO 422 (antibody, IgG4, V domains shown)
VH: B1 VH with K13E, Q16D, T23A, S30T, G45K, I70M, A89L, P111Y
VL: B1 VL with H34A, N90Q
notes: as for B1
B30: VH SEQ ID NO 514 / VL SEQ ID NO 406 (antibody, IgG4, V domains shown)
VH: B1 VH with K13E, Q16D, T23A, S30T, G45K, I70M, A89L, P111Y
VL: B1 VL with H34A, Q100A
notes: as for B1
B31: VH SEQ ID NO 514 / VL SEQ ID NO 382 (antibody, IgG4, V domains shown)
VH: B1 VH with K13E, Q16D, T23A, S30T, G45K, I70M, A89L, P111Y
VL: B1 VL with V29L, Q42E
notes: as for B1
B32: VH SEQ ID NO 522 / VL SEQ ID NO 310 (antibody, IgG4, V domains shown)
VH: B1 VH with K13E
VL: B1 VL with V29I, H34A
notes: as for B1
B33: VH SEQ ID NO 514 / VL SEQ ID NO 398 (antibody, IgG4, V domains shown)
VH: B1 VH with K13E, Q16D, T23A, S30T, G45K, I70M, A89L, P111Y
VL: B1 VL with H34A, Q42E, A51T
notes: as for B1
B34: VH SEQ ID NO 514 / VL SEQ ID NO 438 (antibody, IgG4, V domains shown)
VH: B1 VH with K13E, Q16D, T23A, S30T, G45K, I70M, A89L, P111Y
VL: B1 VL with H34A, F83V
notes: as for B1
B35: VH SEQ ID NO 514 / VL SEQ ID NO 454 (antibody, IgG4, V domains shown)
VH: B1 VH with K13E, Q16D, T23A, S30T, G45K, I70M, A89L, P111Y
VL: B1 VL with Q42E
notes: as for B1
B36: VH SEQ ID NO 314 / VL SEQ ID NO 350 (antibody, IgG4, V domains shown)
VH: B1 VH with K13E, Q16D, T23A, I70M, R72V, A89L
VL: B1 VL with V29I, A51T, Q100A, I106L
notes: as for B1
B37: VH SEQ ID NO 314 / VL SEQ ID NO 334 (antibody, IgG4, V domains shown)
VH: B1 VH with K13E, Q16D, T23A, I70M, R72V, A89L
VL: B1 VL with V29I
notes: as for B1
B38: VH SEQ ID NO 514 / VL SEQ ID NO 350 (antibody, IgG4, V domains shown)
VH: B1 VH with K13E, Q16D, T23A, S30T, G45K, I70M, A89L, P111Y
VL: B1 VL with V29I, A51T, Q100A, I106L
notes: as for B1
B39: VH SEQ ID NO 514 / VL SEQ ID NO 310 (antibody, IgG4, V domains shown)
VH: B1 VH with K13E, Q16D, T23A, S30T, G45K, I70M, A89L, P111Y
VL: B1 VL with V29I, H34A
notes: as for B1
B40: VH SEQ ID NO 314 / VL SEQ ID NO 462 (antibody, IgG4, V domains shown)
VH: B1 VH with K13E, Q16D, T23A, I70M, R72V, A89L
VL: B1 VL with Q100A
notes: as for B1

target: T1, recombinant human activated Factor VII (FVIIa) (human, UniProt P08709 61-212; P08709 213-466, ten glutamate residues of the Gla domain may be gamma-carboxylated); test: BLI (Fortebio)
T1 construct: chains tethered by a disulfide bond; also called Factor VIIa; rFVIIa
T1 sequence 1: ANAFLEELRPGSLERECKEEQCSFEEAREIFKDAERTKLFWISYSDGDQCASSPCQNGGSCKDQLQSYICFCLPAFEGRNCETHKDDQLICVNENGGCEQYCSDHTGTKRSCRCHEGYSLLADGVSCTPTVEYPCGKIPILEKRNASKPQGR
T1 sequence 2: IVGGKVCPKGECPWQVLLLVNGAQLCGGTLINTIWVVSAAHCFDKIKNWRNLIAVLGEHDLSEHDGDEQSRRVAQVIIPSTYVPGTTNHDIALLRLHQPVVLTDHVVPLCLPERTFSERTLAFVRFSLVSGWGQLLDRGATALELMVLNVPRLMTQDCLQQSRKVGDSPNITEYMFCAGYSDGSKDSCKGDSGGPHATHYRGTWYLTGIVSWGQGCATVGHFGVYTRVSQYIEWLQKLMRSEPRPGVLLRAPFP
Experimental: All steps were performed in running buffer (20 mM HEPES buffer (pH 7.4), 150 mM NaCl, 5 mM CaCl2, 0.03% Tween 20, 1 mg/ml IgG-free BSA) at […] Antibodies were captured on anti-human tips (AHC, Fortebio) for 3 min at a concentration of 10 ug/ml. This was followed by a 3 min incubation to establish a baseline. Following this, association was monitored for 3 min using four different concentrations of VIIa (25 nm, 50 nM, 100 nM, and 200 nM), followed by a 3 mi dissociation. Sensorgrams were analysed using Fortebio data analysis software.

Binder | Kd [nM]
B1 | 1.1
B2 | 0.95
B3 | 0.87
B4 | 1.4
B5 | 0.97
B6 | 28
B7 | 4.7
B8 | 1.9
B9 | 32
B10 | 0.92
B11 | 20
B12 | 0.99
B13 | 27
B14 | 28
B15 | 25
B16 | 64
B17 | 1.2
B18 | 1.1
B19 | 22
B20 | 4.6

Binder | Kd [nM]
B21 | 15
B22 | 7.1
B23 | 17
B24 | 18
B25 | 1.2
B26 | 1.4
B27 | 0.81
B28 | 7.7
B29 | 68
B30 | 5.3
B31 | 1.2
B32 | 8.3
B33 | 7.9
B34 | 5.4
B35 | 1.3
B36 | 19
B37 | 21
B38 | 0.94
B39 | 3.1
B40 | 26
